Measurements taken from PMC4820838.

Target: STAT3-NTD-YFP
Test: pair correlation of molecular brightness (pCOMB); pair correlation of brightness fluctuations along a 64-pixel confocal line scan from cytoplasm to nucleus of live HeLa cells; amplitude calibrated against free GFP, YFP or mCherry; cells stimulated with 10 nM oncostatin M for 15 min

Chain of STAT3-NTD-YFP (domain or fragment) (P40763 2-770): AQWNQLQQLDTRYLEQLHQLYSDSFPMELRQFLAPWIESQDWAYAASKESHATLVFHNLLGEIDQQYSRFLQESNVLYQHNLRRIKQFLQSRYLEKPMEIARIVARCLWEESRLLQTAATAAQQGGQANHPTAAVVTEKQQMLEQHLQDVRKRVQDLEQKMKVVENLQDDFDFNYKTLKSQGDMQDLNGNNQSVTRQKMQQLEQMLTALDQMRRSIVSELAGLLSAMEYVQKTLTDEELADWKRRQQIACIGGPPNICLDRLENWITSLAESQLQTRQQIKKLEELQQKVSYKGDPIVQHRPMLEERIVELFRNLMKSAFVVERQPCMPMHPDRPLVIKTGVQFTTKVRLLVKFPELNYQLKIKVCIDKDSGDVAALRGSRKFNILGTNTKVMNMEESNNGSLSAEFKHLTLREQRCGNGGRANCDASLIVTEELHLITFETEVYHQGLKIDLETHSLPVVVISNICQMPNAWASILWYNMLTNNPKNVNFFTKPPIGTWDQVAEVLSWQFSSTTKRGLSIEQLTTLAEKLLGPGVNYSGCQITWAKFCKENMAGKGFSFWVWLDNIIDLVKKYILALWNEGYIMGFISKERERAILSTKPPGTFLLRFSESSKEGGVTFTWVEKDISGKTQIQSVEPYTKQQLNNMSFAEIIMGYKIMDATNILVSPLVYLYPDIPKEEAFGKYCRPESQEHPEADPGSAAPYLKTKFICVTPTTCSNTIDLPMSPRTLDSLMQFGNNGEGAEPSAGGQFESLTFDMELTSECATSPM

- stoichiometry N: 2
Substance: STAT3-NTD-YFP (domain or fragment)
